Results as given in PMC6221542.
pKd: −log10 of the molar value.

Biological target: H3K9me3 peptide NH2-…(me3)STGG-minipeg-K(5-fam)-NH2
Assay: fluorescence polarisation

## CBX1 chromodomain V22E/K25E/D59S (domain or fragment)
  pKd: 6.68

## CBX1 chromodomain, wild type (domain or fragment)
  pKd: 5.56

## CBX1 chromodomain V22E/K25S/D59F (domain or fragment)
  pKd: 6.49
